{"source": "paper PMC7277749", "about": "“Evaluation of Aptamers as Affinity Reagents for an Enhancement of SRM-Based Detection of Low-Abundance Proteins in Blood Plasma”", "target": "SMAD4 (rSMAD4) (UniProt Q13485 1-552)", "sequence (Q13485 whole entry)": "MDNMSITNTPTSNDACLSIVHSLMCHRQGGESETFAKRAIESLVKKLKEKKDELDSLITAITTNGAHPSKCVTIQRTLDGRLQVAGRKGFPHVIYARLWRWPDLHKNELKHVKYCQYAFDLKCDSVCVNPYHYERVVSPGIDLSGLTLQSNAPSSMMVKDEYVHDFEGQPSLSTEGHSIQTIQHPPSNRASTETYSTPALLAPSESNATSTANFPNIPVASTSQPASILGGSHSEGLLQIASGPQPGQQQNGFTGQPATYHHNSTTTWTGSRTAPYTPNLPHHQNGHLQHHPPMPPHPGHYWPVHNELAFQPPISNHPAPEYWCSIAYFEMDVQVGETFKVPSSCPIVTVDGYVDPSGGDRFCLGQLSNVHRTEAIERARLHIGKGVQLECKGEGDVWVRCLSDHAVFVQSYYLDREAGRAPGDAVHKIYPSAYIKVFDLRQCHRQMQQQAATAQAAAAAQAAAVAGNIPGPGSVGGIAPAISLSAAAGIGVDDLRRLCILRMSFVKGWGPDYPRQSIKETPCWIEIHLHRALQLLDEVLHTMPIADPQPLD", "experiment": "MST; 100 nM aptamer; FAM label inferred for MST; MST: 20 mM Tris-HCl pH 7.4, 5 mM KCl, 500 mM NaCl, temperature not stated; pull-down: plasma diluted twice with 10 mM Tris-HCl pH 7.4, 150 mM NaCl plus 0.85 M NaCl, RT, 30 min", "details": "protein: recombinant; tags: N-terminal His6; label: 3'-FAM; hairpin, 16 bp stem, TTTT loop, 3' A5 tail"}
{"binder": "CGAAGTCTAGACAGCGTTTTCGCTGTCTAGACTTCGAAAAA (structured_DNA)", "note": "[Anti-SMAD4 aptamer, 3'-FAM]", "values": [{"measurement": "Kd", "result": "45 ± 7", "unit": "nM"}]}
